According to patent US11274129B2, “Methods for protein tyrosine phosphorylation profiling with variant SH2 domains” (priority 2016, dated 2022):

Assays:
[1] = target: RSKL-pTyr^423 peptide YQHpYDLDLKD; conditions: peptide RSKL-pTyr^423 YQHpYDLDLKD; read-out: equilibrium dissociation constant (Kd); cited from earlier work
[2] = system: mixture of 54 different pTyr-including peptides derived from 54 TK activation loops; experiment: Capture of pTyr-including peptides from a mixture of TK activation loop peptides, scheduled PRM; assay type: binding
Method: Equal molar amounts (10 nmole) of the wild-type (wt) human Src SH2 domain and the DM and TrM human Src SH2 Superbinders (SEQ ID NO: 14 and 5, respectively) expressed with His6 and GST tags were used to capture pTyr-including peptides from a mixture of 54 different pTyr-including peptides (10 pmole each) derived from 54 TK activation loops. The isolated peptides were identified by PRM and quantified based on the corresponding MS peak area. 1.8% of the eluted peptides were injected into a Q-Exactive (Thermo Fisher) preceded with a nano-LC system.
Shown are the amounts of pTyr-including peptides captured, based on the corresponding peak area of PRM signal, by each of the parent human Src SH2 domain and the DM and TrM human Src SH2 Superbinders.

[3] = target: ShcA-pTyr^317 peptide DPSpYVNVQNL; conditions: peptide ShcA-pTyr^317 DPSpYVNVQNL; read-out: equilibrium dissociation constant (Kd); cited from earlier work
[4] = target: MidT-pTyr^324 peptide EPQpYEEIPIYL; conditions: peptide MidT-pTyr^324 EPQpYEEIPIYL; read-out: equilibrium dissociation constant (Kd); cited from earlier work
[5] = target: ShcA-pTyr^239 peptide DHQpYYNDFPG; conditions: peptide ShcA-pTyr^239 DHQpYYNDFPG; read-out: equilibrium dissociation constant (Kd); cited from earlier work
[6] = target: Designed peptide GGpYGG; conditions: read-out: equilibrium dissociation constant (Kd); cited from earlier work
[7] = target: VEGFR1-pTyr^1213 peptide DVRpYVNAAKF; conditions: peptide VEGFR1-pTyr^1213 DVRpYVNAAKF; read-out: equilibrium dissociation constant (Kd); cited from earlier work
[8] = target: EGFR-pTyr^1110 peptide NPVpYHNQPLN; conditions: peptide EGFR-pTyr^1110 NPVpYHNQPLN; read-out: equilibrium dissociation constant (Kd); cited from earlier work
[9] = target: EGFR-pTyr^978 peptide PQRpYLVIQGD; conditions: peptide EGFR-pTyr^978 PQRpYLVIQGD; read-out: equilibrium dissociation constant (Kd); cited from earlier work

B1: Triple mutant: TrM human Src SH2 domain variant with Thr183Val, Cys188Ala and Lys206Leu; His6/GST-tagged form SEQ ID NO: 11 (protein)
chain: DSIQAEEWYFGKITRRESERLLLNAENPRGTFLVRESETVKGAYALSVSDFDNAKGLNVKHYLIRKLDSGGFYITSRTQFNSLQQLVAYYSKHADGLCHRLTTVCPTSK
modifications: SH2 protein domain; TrM human Src SH2 domain
[1]
  Kd: 13 nM
[2]; 10 nmole SH2 domain, 10 pmole each peptide
  number of the 54 pTyr-including peptides captured / detected by PRM: 54
[2]; BLK (pTyr389) IIDSEpYTAQEGAK, fragment ion b2
  PRM signal peak area: 156,244
[2]; BMX (pTyr566) YVLDDQpYVSSVGTK, fragment ion b2
  PRM signal peak area: 151,470
[2]; BTK (pTyr551) YVLDDEpYTSSVGSK, fragment ion b2
  PRM signal peak area: 1,311,693
[2]; DDR1 (pTyr796/797) NLYAGDpYpYR, fragment ion b2
  PRM signal peak area: 337,871
[2]; DDR2 (pTyr740/741) NLYSGDpYpYR, fragment ion y6
  PRM signal peak area: 184,684
[2]; EPHA1 (pTyr781) LLDDFDGTpYETQGGK, fragment ion y9
  PRM signal peak area: 188,365
[2]; EPHA2 (pTyr772) VLEDDPEATpYTTSGGK, fragment ion y11
  PRM signal peak area: 347,030
[2]; EPHA3 (pTyr779) VLEDDPEAApYTTR, fragment ion y8
  PRM signal peak area: 394,218
[2]; EPHA6 (pTyr830) VLEDDPEAApYTTTGGK, fragment ion b2
  PRM signal peak area: 287,653
[2]; EPHA8 (pTyr793) VLEDDPDAApYTTTGGK, fragment ion y11
  PRM signal peak area: 585,234
[2]; EPHB1 (pTyr778) YLQDDTSDPTpYTSSLGGK, fragment ion y10
  PRM signal peak area: 205,974
[2]; EPHB2 (pTyr780) FLEDDTSDPTpYTSALGGK, fragment ion Y3
  PRM signal peak area: 215,302
[2]; EPHB3 (pTyr792) FLEDDPSDPTpYTSSLGGK, fragment ion y10
  PRM signal peak area: 260,454
[2]; EPHB4 (pTyr774) FLEENSSDPTpYTSSLGGK, fragment ion y10
  PRM signal peak area: 134,156
[2]; ERBB2 (pTyr877) LLDIDETEpYHADGGK, fragment ion b3
  PRM signal peak area: 42,655
[2]; ERBB3 (pTyr866) QLLpYSEAK, fragment ion y2
  PRM signal peak area: 164,128
[2]; FER (pTyr714) QEDGGVpYSSSGLK, fragment ion y7
  PRM signal peak area: 27,417
[2]; FES (pTyr713) EEADGVpYAASGGLR, fragment ion y8
  PRM signal peak area: 25,101
[2]; FGFR1 (pTyr653/654) DIHHIDpYpYK, fragment ion b6
  PRM signal peak area: 51,243
[2]; FGFR2 (pTyr656/657) DINNIDpYpYK, fragment ion y4
  PRM signal peak area: 87,143
[2]; FGFR3 (pTyr647/648) DVHNLDpYpYK, fragment ion b3
  PRM signal peak area: 258,435
[2]; FGFR4 (pTyr642/643) GVHHIDpYpYK, fragment ion b3
  PRM signal peak area: 36,105
[2]; FRK (pTyr387) VDNEDIpYESR, fragment ion y6
  PRM signal peak area: 290,546
[2]; GSK3 (pTyr279/216) GEPNVSpYICSR, fragment ion y6
  PRM signal peak area: 48,337
[2]; HCK (pTyr411) VIEDNEpYTAR, fragment ion b2
  PRM signal peak area: 383,521
[2]; INSRR (pTyr1145/1146) DVYETDpYpYR, fragment ion y5
  PRM signal peak area: 20,796
[2]; ITK (pTyr512) FVLDDQpYTSSTGTK, fragment ion y11
  PRM signal peak area: 403,125
[2]; JAK1 (pTyr1034/1035) EpYpYTVK, fragment ion y2
  PRM signal peak area: 109,611
[2]; JAK2 (pTyr221) IQDpYHILTR, fragment ion Y3
  PRM signal peak area: 85,513
[2]; JAK3 (pTyr980/981) DpYpYVVR, fragment ion y2
  PRM signal peak area: 19,712
[2]; KIT (pTyr823) NDSNpYVVK, fragment ion b2
  PRM signal peak area: 234,665
[2]; LMTK2 (pTyr295) EDpYIETDDK, fragment ion b2
  PRM signal peak area: 20,896
[2]; LMTK3 (pTyr296/297) EDpYpYLTPER, fragment ion y3
  PRM signal peak area: 375,974
[2]; MERTK (pTyr753/754) IYSGDpYpYR, fragment ion b2
  PRM signal peak area: 26,483
[2]; MET (pTyr1234/1235) EpYpYSVHNK, fragment ion y2
  PRM signal peak area: 111,218
[2]; MUSK (pTyr755/756) NIYSADpYpYK, fragment ion y2
  PRM signal peak area: 178,086
[2]; NTRK1 (pTyr680/681) DIYSTDpYpYR, fragment ion b2
  PRM signal peak area: 103,368
[2]; NTRK2 (pTyr706/707) DVYSTDpYpYR, fragment ion y4
  PRM signal peak area: 114,762
[2]; PGFRB (pTyr857) DSNpYISK, fragment ion y2
  PRM signal peak area: 398,271
[2]; PTK7 (pTyr960/961) DVYNSEpYpYHFR, fragment ion b2
  PRM signal peak area: 8,863
[2]; RET (pTyr905) DVYEEDSpYVK, fragment ion b2
  PRM signal peak area: 882,529
[2]; RON (pTyr1238/1239) EpYpYSVQQHR, fragment ion y4
  PRM signal peak area: 44,290
[2]; ROR1 (pTyr645/646) EIYSADpYpYR, fragment ion y6
  PRM signal peak area: 177,244
[2]; ROR2 (pTyr645/646) EVYAADpYpYK, fragment ion y5
  PRM signal peak area: 334,295
[2]; SRC (pTyr419) LIEDNEpYTAR, fragment ion b2
  PRM signal peak area: 99,515
[2]; SRMS (pTyr380) DDIpYSPSSSSK, fragment ion y8
  PRM signal peak area: 478,598
[2]; TEC (pTyr519) YVLDDQpYTSSSGAK, fragment ion b2
  PRM signal peak area: 781,110
[2]; TIE1 (pTyr1007) GEEVpYVK, fragment ion b2
  PRM signal peak area: 409,242
[2]; TIE2 (pTyr992) GQEVpYVK, fragment ion b2
  PRM signal peak area: 209,701
[2]; TXK (pTyr420) YVLDDEpYVSSFGAK, fragment ion b2
  PRM signal peak area: 271,650
[2]; TYK2 (pTyr1054/1055) AVPEGHEpYpYR, fragment ion y6
  PRM signal peak area: 53,473
[2]; VGFR1 (pTyr1053) NPDpYVR, fragment ion y3
  PRM signal peak area: 158,244
[2]; VGFR2 (pTyr1059) DPDpYVR, fragment ion Y3
  PRM signal peak area: 196,659
[3]
  Kd: 7.5 nM
[4]
  Kd: 3.8 nM
[5]
  Kd: 3.8 nM
[6]
  Kd: 510 nM
[7]
  Kd: 23 nM
[8]
  Kd: 76 nM
[9]
  Kd: 7.7 nM
